From IntAct's records for PubMed 17235283

B1: Lymphocyte cytosolic protein 2 (Homo sapiens), Q13094 (parent)
chain: MALRNVPFRSEVLGWDPDSLADYFKKLNYKDCEKAVKKYHIDGARFLNLTENDIQKFPKLRVPILSKLSQEINKNEERRSIFTRKPQVPRFPEETESHEEDNGGWSSFEEDDYESPNDDQDGEDDGDYESPNEEEEAPVEDDADYEPPPSNDEEALQNSILPAKPFPNSNSMYIDRPPSGKTPQQPPVPPQRPMAALPPPPAGRNHSPLPPPQTNHEEPSRSRNHKTAKLPAPSIDRSTKPPLDRSLAPFDREPFTLGKKPPFSDKPSIPAGRSLGEHLPKIQKPPLPPTTERHERSSPLPGKKPPVPKHGWGPDRRENDEDDVHQRPLPQPALLPMSSNTFPSRSTKPSPMNPLPSSHMPGAFSESNSSFPQSASLPPYFSQGPSNRPPIRAEGRNFPLPLPNKPRPPSPAEEENSLNEEWYVSYITRPEAEAALRKINQDGTFLVRDSSKKTTTNPYVLMVLYKDKVYNIQIRYQKESQVYLLGTGLRGKEDFLSVSDIIDYFRKMPLLLIDGKNRGSRYQCTLTHAAGYP

Variants of: B1
Conditions: with grb2_human GRB2, P62993

effect of a mutation on the interaction	Variant
disrupting interaction	MALRNVPFRSEVLGWDPDSLADYFKKLNYKDCEKAVKKYHIDGARFLNLTENDIQKFPKLRVPILSKLSQEINKNEERRSIFTRKPQVPRFPEETESHEEDNGGWSSFEEDDYESPNDDQDGEDDGDYESPNEEEEAPVEDDADYEPPPSNDEEALQNSILPAKPFPNSNSMYIDRPPSGKTPQQPPVPPQRPMAALPPPPAGRNHSPLPPPQTNHEEPSRSRNHKTAKLPAPSIDRSPKPPLDRSLAPFDREPFTLGKKPPFSDKPSIPAGRSLGEHLPKIQKPPLPPTTERHERSSPLPGKKPPVPKHGWGPDRRENDEDDVHQRPLPQPALLPMSSNTFPSRSTKPSPMNPLPSSHMPGAFSESNSSFPQSASLPPYFSQGPSNRPPIRAEGRNFPLPLPNKPRPPSPAEEENSLNEEWYVSYITRPEAEAALRKINQDGTFLVRDSSKKTTTNPYVLMVLYKDKVYNIQIRYQKESQVYLLGTGLRGKEDFLSVSDIIDYFRKMPLLLIDGKNRGSRYQCTLTHAAGYP [T239P]

Variants of: B1
Conditions: with stam1_human STAM

effect of a mutation on the interaction	Variant
disrupting interaction	MALRNVPFRSEVLGWDPDSLADYFKKLNYKDCEKAVKKYHIDGARFLNLTENDIQKFPKLRVPILSKLSQEINKNEERRSIFTRKPQVPRFPEETESHEEDNGGWSSFEEDDYESPNDDQDGEDDGDYESPNEEEEAPVEDDADYEPPPSNDEEALQNSILPAKPFPNSNSMYIDRPPSGKTPQQPPVPPQRPMAALPPPPAGRNHSPLPPPQTNHEEPSRSRNHKTAKLPAPSIDRSPKPPLDRSLAPFDREPFTLGKKPPFSDKPSIPAGRSLGEHLPKIQKPPLPPTTERHERSSPLPGKKPPVPKHGWGPDRRENDEDDVHQRPLPQPALLPMSSNTFPSRSTKPSPMNPLPSSHMPGAFSESNSSFPQSASLPPYFSQGPSNRPPIRAEGRNFPLPLPNKPRPPSPAEEENSLNEEWYVSYITRPEAEAALRKINQDGTFLVRDSSKKTTTNPYVLMVLYKDKVYNIQIRYQKESQVYLLGTGLRGKEDFLSVSDIIDYFRKMPLLLIDGKNRGSRYQCTLTHAAGYP [T239P]

Variants of: B1
Conditions: with stam2_human STAM2, O75886

effect of a mutation on the interaction	Variant
disrupting interaction	MALRNVPFRSEVLGWDPDSLADYFKKLNYKDCEKAVKKYHIDGARFLNLTENDIQKFPKLRVPILSKLSQEINKNEERRSIFTRKPQVPRFPEETESHEEDNGGWSSFEEDDYESPNDDQDGEDDGDYESPNEEEEAPVEDDADYEPPPSNDEEALQNSILPAKPFPNSNSMYIDRPPSGKTPQQPPVPPQRPMAALPPPPAGRNHSPLPPPQTNHEEPSRSRNHKTAKLPAPSIDRSPKPPLDRSLAPFDREPFTLGKKPPFSDKPSIPAGRSLGEHLPKIQKPPLPPTTERHERSSPLPGKKPPVPKHGWGPDRRENDEDDVHQRPLPQPALLPMSSNTFPSRSTKPSPMNPLPSSHMPGAFSESNSSFPQSASLPPYFSQGPSNRPPIRAEGRNFPLPLPNKPRPPSPAEEENSLNEEWYVSYITRPEAEAALRKINQDGTFLVRDSSKKTTTNPYVLMVLYKDKVYNIQIRYQKESQVYLLGTGLRGKEDFLSVSDIIDYFRKMPLLLIDGKNRGSRYQCTLTHAAGYP [T239P]

Variants of: B1
Conditions: with stam1_human STAM
Remark: another data set of the same source

effect of a mutation on the interaction	Variant
decreasing interaction	MALRNVPFRSEVLGWDPDSLADYFKKLNYKDCEKAVKKYHIDGARFLNLTENDIQKFPKLRVPILSKLSQEINKNEERRSIFTRKPQVPRFPEETESHEEDNGGWSSFEEDDYESPNDDQDGEDDGDYESPNEEEEAPVEDDADYEPPPSNDEEALQNSILPAKPFPNSNSMYIDRPPSGKTPQQPPVPPQRPMAALPPPPAGRNHSPLPPPQTNHEEPSRSRNHKTAKLPAPPIDRSTKPPLDRSLAPFDREPFTLGKKPPFSDKPSIPAGRSLGEHLPKIQKPPLPPTTERHERSSPLPGKKPPVPKHGWGPDRRENDEDDVHQRPLPQPALLPMSSNTFPSRSTKPSPMNPLPSSHMPGAFSESNSSFPQSASLPPYFSQGPSNRPPIRAEGRNFPLPLPNKPRPPSPAEEENSLNEEWYVSYITRPEAEAALRKINQDGTFLVRDSSKKTTTNPYVLMVLYKDKVYNIQIRYQKESQVYLLGTGLRGKEDFLSVSDIIDYFRKMPLLLIDGKNRGSRYQCTLTHAAGYP [S234P]

Variants of: B1
Conditions: with stam2_human STAM2, O75886
Remark: another data set of the same source

effect of a mutation on the interaction	Variant
decreasing interaction	MALRNVPFRSEVLGWDPDSLADYFKKLNYKDCEKAVKKYHIDGARFLNLTENDIQKFPKLRVPILSKLSQEINKNEERRSIFTRKPQVPRFPEETESHEEDNGGWSSFEEDDYESPNDDQDGEDDGDYESPNEEEEAPVEDDADYEPPPSNDEEALQNSILPAKPFPNSNSMYIDRPPSGKTPQQPPVPPQRPMAALPPPPAGRNHSPLPPPQTNHEEPSRSRNHKTAKLPAPPIDRSTKPPLDRSLAPFDREPFTLGKKPPFSDKPSIPAGRSLGEHLPKIQKPPLPPTTERHERSSPLPGKKPPVPKHGWGPDRRENDEDDVHQRPLPQPALLPMSSNTFPSRSTKPSPMNPLPSSHMPGAFSESNSSFPQSASLPPYFSQGPSNRPPIRAEGRNFPLPLPNKPRPPSPAEEENSLNEEWYVSYITRPEAEAALRKINQDGTFLVRDSSKKTTTNPYVLMVLYKDKVYNIQIRYQKESQVYLLGTGLRGKEDFLSVSDIIDYFRKMPLLLIDGKNRGSRYQCTLTHAAGYP [S234P]

Variants of: B1
Conditions: with grb2_human GRB2, P62993
Remark: another data set of the same source

effect of a mutation on the interaction	Variant
decreasing interaction	MALRNVPFRSEVLGWDPDSLADYFKKLNYKDCEKAVKKYHIDGARFLNLTENDIQKFPKLRVPILSKLSQEINKNEERRSIFTRKPQVPRFPEETESHEEDNGGWSSFEEDDYESPNDDQDGEDDGDYESPNEEEEAPVEDDADYEPPPSNDEEALQNSILPAKPFPNSNSMYIDRPPSGKTPQQPPVPPQRPMAALPPPPAGRNHSPLPPPQTNHEEPSRSRNHKTAKLPAPSIDRRTKPPLDRSLAPFDREPFTLGKKPPFSDKPSIPAGRSLGEHLPKIQKPPLPPTTERHERSSPLPGKKPPVPKHGWGPDRRENDEDDVHQRPLPQPALLPMSSNTFPSRSTKPSPMNPLPSSHMPGAFSESNSSFPQSASLPPYFSQGPSNRPPIRAEGRNFPLPLPNKPRPPSPAEEENSLNEEWYVSYITRPEAEAALRKINQDGTFLVRDSSKKTTTNPYVLMVLYKDKVYNIQIRYQKESQVYLLGTGLRGKEDFLSVSDIIDYFRKMPLLLIDGKNRGSRYQCTLTHAAGYP [S238R]

Variants of: B1
Conditions: with stam1_human STAM
Remark: another data set of the same source

effect of a mutation on the interaction	Variant
decreasing interaction	MALRNVPFRSEVLGWDPDSLADYFKKLNYKDCEKAVKKYHIDGARFLNLTENDIQKFPKLRVPILSKLSQEINKNEERRSIFTRKPQVPRFPEETESHEEDNGGWSSFEEDDYESPNDDQDGEDDGDYESPNEEEEAPVEDDADYEPPPSNDEEALQNSILPAKPFPNSNSMYIDRPPSGKTPQQPPVPPQRPMAALPPPPAGRNHSPLPPPQTNHEEPSRSRNHKTAKLPAPSIDRRTKPPLDRSLAPFDREPFTLGKKPPFSDKPSIPAGRSLGEHLPKIQKPPLPPTTERHERSSPLPGKKPPVPKHGWGPDRRENDEDDVHQRPLPQPALLPMSSNTFPSRSTKPSPMNPLPSSHMPGAFSESNSSFPQSASLPPYFSQGPSNRPPIRAEGRNFPLPLPNKPRPPSPAEEENSLNEEWYVSYITRPEAEAALRKINQDGTFLVRDSSKKTTTNPYVLMVLYKDKVYNIQIRYQKESQVYLLGTGLRGKEDFLSVSDIIDYFRKMPLLLIDGKNRGSRYQCTLTHAAGYP [S238R]

Variants of: B1
Conditions: with stam2_human STAM2, O75886
Remark: another data set of the same source

effect of a mutation on the interaction	Variant
decreasing interaction	MALRNVPFRSEVLGWDPDSLADYFKKLNYKDCEKAVKKYHIDGARFLNLTENDIQKFPKLRVPILSKLSQEINKNEERRSIFTRKPQVPRFPEETESHEEDNGGWSSFEEDDYESPNDDQDGEDDGDYESPNEEEEAPVEDDADYEPPPSNDEEALQNSILPAKPFPNSNSMYIDRPPSGKTPQQPPVPPQRPMAALPPPPAGRNHSPLPPPQTNHEEPSRSRNHKTAKLPAPSIDRRTKPPLDRSLAPFDREPFTLGKKPPFSDKPSIPAGRSLGEHLPKIQKPPLPPTTERHERSSPLPGKKPPVPKHGWGPDRRENDEDDVHQRPLPQPALLPMSSNTFPSRSTKPSPMNPLPSSHMPGAFSESNSSFPQSASLPPYFSQGPSNRPPIRAEGRNFPLPLPNKPRPPSPAEEENSLNEEWYVSYITRPEAEAALRKINQDGTFLVRDSSKKTTTNPYVLMVLYKDKVYNIQIRYQKESQVYLLGTGLRGKEDFLSVSDIIDYFRKMPLLLIDGKNRGSRYQCTLTHAAGYP [S238R]
